Holding throughout (assay): competition binding
What all share (details): modification not given

Assay [1] concerns the target HLA-DRB1*0401 (human).
Assay [2] deals with HLA-DRB1*1501 (human).
Assay [3] deals with HLA-DRB1*0301 (human).
Assay [4] concerns the target HLA-DRB1*0701 (human).
For assay [5], the target named is HLA-DRB1*1301 (human).
The target in assay [6] is HLA-DRB1*1101 (human).
Assay [7] addresses HLA-DRB1*0101 (human).
For assay [8], the target named is HLA-DRB3*0101 (human).
The target in assay [9] is HLA-DRB4*0101 (human).
The target in assay [10] is HLA-DRB5*0101 (human).

B1: p30 (peptide)
chain: HKWEAAHVAEQLRAY
Broadly, the IC50 is the concentration that inhibits the measured activity by half. The low end stands for higher potency, the high end for lower potency. Turning to B1, the IC50 in [1] was 0.118 µM; in [2], 0.938 µM; in assay [3] it was 16.5 µM; in assay [4], 0.401 µM; in assay [5] it was over 100 µM; in assay [6] it was 0.379 µM. In addition, the half-inhibitory concentration (IC50) was found to be 0.029 µM in assay [7] and 0.806 µM in assay [8].

B2: p48 (peptide)
chain: EQRYTCHVQHEGLPKP
Regarding B2, the IC50 in assay [1] was 57.4 µM; in assay [2] it was over 100 µM; in assay [3], over 100 µM; in assay [4], 29.5 µM; in [5] it was over 100 µM; in [6] it was 0.693 µM. Also, the IC50 in [7] was 1.92 µM; in assay [8], 20.5 µM.

B3: p24 (peptide)
chain: YAYDGKDYIALKEDL
In the case of B3, the IC50 in assay [1] was 3.87 µM; in [9] it was over 100 µM; in assay [2], over 100 µM; in assay [3], over 100 µM; in [4], 4.47 µM; in assay [5], over 100 µM. Besides, the results for the half-maximal inhibitory concentration (IC50) in [6], in assay [7] and in assay [8] were 0.184 µM, 0.035 µM and over 100 µM, respectively.

B4: p49 (peptide)
chain: EGLPKPLTLRWEPSS
In the case of B4, the IC50 in assay [1] is 0.497 µM; in [9] it was 33.9 µM; in [2], 50.2 µM; in assay [3], over 100 µM; in [4], 71 µM; in assay [5] it was over 100 µM. Moreover, the IC50 in assay [6] was 2.06 µM; in [7], 0.497 µM; in [8] it was 4.69 µM.

B5: p27 (peptide)
chain: EDLRSWTAADMAAQT
B5: the IC50 in assay [1] was over 100 µM; in assay [2], 0.648 µM; in assay [3] it was over 100 µM; in assay [4] it was over 100 µM; in assay [5], over 100 µM; in assay [6], over 100 µM. Further, the IC50 in assay [7] is over 100 µM; in [8], 1.88 µM.

B6: p34* (peptide)
chain: TCVEWLRRYLENGKE
With B6, the IC50 in assay [1] was over 100 µM; in [2] it was 22.2 µM; in assay [3], over 100 µM; in assay [4], over 100 µM; in assay [5], 5 µM; in [6], 0.245 µM. The IC50 was over 100 µM in assay [7] and 58.1 µM in assay [8].

B7: p43 (peptide)
chain: LTWQRDGEDQTQDTE
Turning to B7, the IC50 in [1] is over 100 µM; in assay [10], 4.1 µM; in [2], over 100 µM; in [3] it was 97.5 µM; in [4], over 100 µM; in assay [5], over 100 µM. Further, the IC50 in assay [6] and in assay [7] was over 100 µM throughout.

B8: p33 (peptide)
chain: RAYLEGTCVEWLRRY
Turning to B8, the IC50 in [1] came to 9.17 µM; in [9], 12.6 µM; in assay [2] it was 4.74 µM; in assay [3] it was 34.9 µM; in [4] it was 0.637 µM; in assay [5], 13.4 µM. The results for the IC50 in [6], in [7] and in assay [8] were 0.872 µM, 0.025 µM and 8.94 µM, respectively.

B9: p36 (peptide)
chain: RRYLENGKETLQRTD
Take B9: the IC50 is 28 µM in assay [1]; 69 µM in [2]; over 100 µM in assay [3]; over 100 µM in assay [4]; 11.6 µM in [5]; 0.738 µM in assay [6]. The IC50 came out at 0.704 µM in [7] and 4.85 µM in assay [8].

B10: p46* (peptide)
chain: FQKWAAVVVPSGQEQR
As to B10, the 50% inhibitory concentration (IC50) in [1] is 0.326 µM; in [2] it was over 100 µM; in assay [3], 7.35 µM; in assay [4] it was 0.7 µM; in [5], over 100 µM; in assay [6], 0.626 µM. Besides, the half-inhibitory concentration (IC50) in assay [7] amounted to 0.218 µM; in assay [8], 1.73 µM.

B11: p4 (peptide)
chain: PRFIAVGYVDDTQFV
Take B11: the IC50 in [1] is over 100 µM; in [10] it was 0.755 µM; in assay [9], 45.7 µM; in assay [3] it was 12 µM; in assay [4], 0.85 µM; in [5], over 100 µM. In addition, the half-maximal inhibitory concentration (IC50) stood at 5.48 µM in [6], 0.748 µM in assay [7] and 0.196 µM in assay [8].

B12: p29 (peptide)
chain: ADMAAQTTKHKWEAA
In the case of B12, the IC50 was over 100 µM in assay [1]; over 100 µM in assay [2]; over 100 µM in assay [3]; over 100 µM in assay [4]; 3.84 µM in assay [5]; over 100 µM in [6]. Further, the figures for the half-inhibitory concentration (IC50) in assay [7] and in assay [8] were 40 µM and 0.033 µM, respectively.

B13: p17* (peptide)
chain: HTVQRMYGCDVGSDW
On to B13, for which the IC50 was 2.12 µM in [1]; 12 µM in assay [10]; 2.83 µM in assay [2]; 5.61 µM in assay [3]; 1.59 µM in [4]; over 100 µM in assay [5]. Besides, the figures for the IC50 in assay [6], in assay [7] and in assay [8] were 6.48 µM, 0.035 µM and 0.529 µM, respectively.

B14: p16* (peptide)
chain: RGYYNQSEAGSHTVQ
On to B14, for which the IC50 is 0.494 µM in assay [1]; 0.175 µM in assay [10]; over 100 µM in [9]; over 100 µM in assay [2]; over 100 µM in assay [3]; 0.13 µM in assay [4]. The figures for the IC50 in assay [5], in assay [6] and in assay [8] were over 100 µM, 3.18 µM and over 100 µM, respectively.

B15: p5 (peptide)
chain: IAVGYVDDTQFVRFD
Take B15: the IC50 in [1] was 31 µM; in [10], 0.798 µM; in assay [9] it was over 100 µM; in [2], 2.97 µM; in assay [3], 0.316 µM; in assay [4], 3.1 µM. The IC50 in assay [5] was over 100 µM; in assay [6], 9.22 µM; in [7], 2.77 µM.

B16: p51* (peptide)
chain: LTLRWEPSSQPTIPI
On to B16, for which the IC50 in assay [1] was 0.497 µM; in assay [9] it was 26 µM; in assay [2], 2.44 µM; in assay [3], over 100 µM; in assay [4], 0.072 µM; in [5] it was over 100 µM. For the same molecule, the IC50 is over 100 µM in assay [6], 0.525 µM in assay [7] and 29 µM in assay [8].

B17: p28 (peptide)
chain: RSWTAADMAAQTTKH
In the case of B17, the IC50 in assay [1] is 1.53 µM; in assay [10], 40.5 µM; in assay [2], over 100 µM; in [3], over 100 µM; in [4] it was 12.8 µM; in assay [5], over 100 µM. Also, the results for the half-maximal inhibitory concentration (IC50) in assay [6], in assay [7] and in [8] were 10.5 µM, 0.067 µM and 1 µM, respectively.
